Results on 1 substance are retold here after publication PMC4411560.

Experiment [1] addresses 30S IC_(−1/3): canonical 30S initiation complex lacking IF1 and IF3 (E. coli (strain MRE600)). In words: FRET or BRET. On the technique in general: Bioluminescence resonance energy transfer reports proximity on the nanometre scale.
The target of experiment [2] is 30S IC_(−1/3,Met): pseudo 30S initiation complex lacking IF1 and IF3 carrying Met-tRNA^fMet (E. coli (strain MRE600)). In words: FRET or BRET.

With “IF2(Cy5): Cy5-labeled E. coli initiation factor 2, γ-isoform, G810C (natural protein)”, in experiment [1], the dissociation constant Kd came out at 50 nM and the kon stood at 1.3e+07 M⁻¹ s⁻¹. Also, in experiment [2], the koff was found to be 1.3 s⁻¹ and the kon came out at 19000 M⁻¹ s⁻¹.

Usually Kd stands for the equilibrium constant for the complex coming apart. A high value points to weaker binding. One may read the kon as a measure of how fast the partners come together. The koff is the first-order rate constant of dissociation. Higher therefore signals a short-lived complex.
